Assay results published in article doi:10.1101/2023.07.16.549228 (bioRxiv, 2023).

B1: encapsulin from Thermotoga maritima (TmEnc) nanocage (natural protein)
chain: MEFLKRSFAPLTEKQWQEIDNRAREIFKTQLYGRKFVDVEGPYGWEYAAHPLGEVEVLSDENEVVKWGLRKSLPLIELRATFTLDLWELDNLERGKPNVDLSSLEETVRKVAEFEDEVIFRGCEKSGVKGLLSFEERKIECGSTPKDLLEAIVRALSIFSKDGIEGPYTLVINTDRWINFLKEEAGHYPLEKRVEECLRGGKIITTPRIEDALVVSERGGDFKLILGQDLSIGYEDREKDAVRLFITETFTFQVVNPEALILLKF
B2: Cy7-labelled TmEnc (TmEnc^Cy7) nanocage (natural protein, Thermotoga maritima)
chain: B1 chain
modifications: sulfo-Cy7 conjugated to lysine residues on the outer surface (~50 dye molecules per nanocage)

Molecular target: the molecule itself
Assay: transmission electron microscopy

Protein | binding result
B1 | binds
B2 | binds
